Tests used:
[1] = molecular target: T1, STAT3 (UniProt P40763 P40763:1-770); assay: EMSA; conditions: chain copies: 2 inferred
[2] = molecular target: T1, STAT3; assay: EMSA; longer sequence effective in blocking STAT3 activation; conditions: chain copies: 2 inferred
[3] = molecular target: T2, pSTAT3 (tyrosine-phosphorylated STAT3) (UniProt P40763 P40763:1-770); assay: SPR; Langmuir 1:1, 4 C, 20 mM HEPES pH 7.0, 200 mM NaCl, 10 mM MgCl2; replicate 1.15E-7 (Table 5A), 3.20E-7 (Table 5B); Table 3 1.29E-7 to 9.91E-7; conditions: tags: recombinant, immobilized on CM5 chip for SPR, chain copies: 2 inferred
Method: (§1) To more quantitatively assess the affinity of the decoy for pSTAT3 protein, the binding affinity by surface plasmon resonance (SPR) was determined. Solutions of STAT3 decoy were prepared at multiple concentrations and passed over recombinant tyrosine phosphorylated STAT3 immobilized in a sensor chip.
(§2) The amount of parent STAT3 decoy and modified STAT3 decoys bound to recombinant pSTAT3 increased directly with increasing concentrations of STAT3 decoy in test solutions. Data analysis by fitting the sensorgrams to a Langmuir 1:1 model of binding yielded kinetic and affinity values (Table 4).
(§3) To determine the specific binding affinities of the parent and the modified decoys (DN4 and DS18) to the pSTAT3 protein, surface plasmon resonance (SPR) analyses were performed using a BIAcore 3000 instrument (GE Healthcare, Piscataway, N.J.). All buffer and sample solutions were filtered and degassed prior to each run, with more optimal pH and instrument parameters determined empirically. The pSTAT3 protein at 10 μg/ml in 10 mM sodium acetate buffer (pH 4.0), was immobilized on freshly activated chip surface. […] Binding of STAT3 decoy, DN4 and DS18 to pSTAT3 protein were determined at several concentrations such as […] 0.625 μM, 1.25 μM, 2.5 μM 5.0 μM and 10.0 μM of analyte solutions, at a flow rate of 30 μL/min in a running buffer (20 mM HEPES, pH 7.0, 200 mM NaCl, 10 mM MgCl₂). […]

[4] = molecular target: T2, pSTAT3 (tyrosine-phosphorylated STAT3); assay: SPR; Langmuir 1:1, 4 C, 20 mM HEPES pH 7.0, 200 mM NaCl, 10 mM MgCl2; conditions: tags: recombinant, immobilized on CM5 chip for SPR, chain copies: 2 inferred, hairpin, GAAA loop linking the strands
Method: as §1, §2, §3

T1 sequence (P40763 whole entry, one chain of several): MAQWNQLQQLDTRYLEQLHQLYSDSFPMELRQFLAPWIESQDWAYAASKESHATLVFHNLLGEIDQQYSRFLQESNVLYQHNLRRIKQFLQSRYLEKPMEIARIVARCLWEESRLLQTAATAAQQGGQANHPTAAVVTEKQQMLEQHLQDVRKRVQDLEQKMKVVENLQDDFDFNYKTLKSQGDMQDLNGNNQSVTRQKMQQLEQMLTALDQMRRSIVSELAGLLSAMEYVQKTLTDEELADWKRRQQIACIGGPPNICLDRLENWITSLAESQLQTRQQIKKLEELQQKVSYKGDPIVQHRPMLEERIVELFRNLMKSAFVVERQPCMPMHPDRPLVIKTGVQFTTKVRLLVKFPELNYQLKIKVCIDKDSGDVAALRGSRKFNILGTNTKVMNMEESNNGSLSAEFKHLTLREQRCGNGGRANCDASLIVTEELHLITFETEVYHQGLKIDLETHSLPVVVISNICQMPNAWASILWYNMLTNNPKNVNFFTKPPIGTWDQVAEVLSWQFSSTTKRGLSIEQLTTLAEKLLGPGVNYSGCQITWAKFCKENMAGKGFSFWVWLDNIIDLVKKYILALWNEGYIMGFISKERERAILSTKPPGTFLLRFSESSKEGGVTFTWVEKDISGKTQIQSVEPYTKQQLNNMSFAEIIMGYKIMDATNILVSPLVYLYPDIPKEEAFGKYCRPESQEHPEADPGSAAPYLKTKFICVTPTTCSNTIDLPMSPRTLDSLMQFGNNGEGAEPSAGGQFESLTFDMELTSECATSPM
T2 sequence (P40763 whole entry, one chain of several): as above

B1: Mutant 3 (mutant control decoy) (dsDNA)
DNA 1: CATTTCCCTTAAATC
DNA 2: GATTTAAGGGAAATG
binding result [1]: no binding

B2: STAT3 decoy (hSIE) (dsDNA)
DNA 1: CATTTCCCGTAAATC
DNA 2: GATTTACGGGAAATG
binding result [1]: binds

B3: longer 31-mer hSIE duplex (dsDNA)
DNA 1: AGCTTGTCGACATTTCCCGTAAATCGTCGAG
DNA 2: CTCGACGATTTACGGGAAATGTCGACAAGCT
binding result [2]: binds

B4: parent STAT3 decoy (PTO) (dsDNA)
DNA 1: CATTTCCCGTAAATC
DNA 2: GATTTACGGGAAATG
modifications: PS first three and last three bases of both strands
Kd [3]: 122 nM

B5: DN4 (structured_DNA)
DNA: CATTTCCCGTAAATCGAAAGATTTACGGGAAATG
modifications: PS x3 at 5' end of one strand and 3' end of the other (Table 2: 5' and 3' ends of both strands)
Kd [4]: 182 nM

Reference: patent publication US20120288536, “Stabilized Stat3 Decoy Oligonucleotides And Uses Therefor” (Carnegie Melton, published 2012)
